Measured values: US20240209068A1

Key:
[1] = target: Clostridium difficile toxin A (purified) (Clostridium difficile) (UniProt P16154)
[2] = target: Clostridium difficile toxin A (purified) (Clostridium difficile) (UniProt P16154); experiment: cell-based or functional assay

Actoxumab IgA2m1, sequence (heavy, form in doubt): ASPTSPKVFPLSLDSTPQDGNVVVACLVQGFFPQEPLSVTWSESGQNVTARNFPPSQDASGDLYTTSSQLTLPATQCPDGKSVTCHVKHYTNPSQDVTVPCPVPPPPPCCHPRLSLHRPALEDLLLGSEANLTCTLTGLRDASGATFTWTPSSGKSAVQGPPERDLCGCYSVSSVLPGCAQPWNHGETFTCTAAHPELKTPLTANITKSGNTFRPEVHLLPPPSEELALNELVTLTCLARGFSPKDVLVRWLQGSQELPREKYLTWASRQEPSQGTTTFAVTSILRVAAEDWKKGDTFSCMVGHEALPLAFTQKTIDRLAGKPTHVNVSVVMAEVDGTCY
Actoxumab IgA2m1, sequence (P01591 whole entry, form in doubt): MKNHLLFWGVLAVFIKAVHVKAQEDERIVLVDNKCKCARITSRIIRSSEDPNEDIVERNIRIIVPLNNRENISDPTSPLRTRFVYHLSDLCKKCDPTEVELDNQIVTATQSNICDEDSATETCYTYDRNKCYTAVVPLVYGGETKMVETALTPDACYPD

Substance: Actoxumab IgA2m1 (antibody)
- IC50 (read off the curve); % neutralization of Toxin A on Vero cells (alamarBlue), curve 'Actoxumab IgA2m1 Protein' [1]: 0.03 µg/mL
- IC50 (read off the curve); % neutralization of Toxin A on Vero cells (alamarBlue), curve 'Actoxumab IgA2m1 mRNA' [1]: 0.01 µg/mL
- potency (IC50) of Toxin A neutralization on Vero cells relative to Actoxumab IgG; antibody from mRNA-transfected cell supernatant [2]: 200 fold
- potency (IC50) of Toxin A neutralization on Vero cells relative to Actoxumab IgG; recombinant antibody protein [2]: 200 fold
